Measurements as given in the supplement of paper PMC9112550, “Optimization of the antimicrobial peptide Bac7 by deep mutational scanning” (BMC Biology, 2022).

system: Escherichia coli TOP10; test: shrunken log2 fold change of peptide-encoding DNA abundance (4.5 h post-induction vs induction); higher = less antimicrobial activity (less host growth inhibition); conditions: time post-induction: 4.5 h; library: site-saturation at positions 5, 18, 19, 20
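Further: peptides expressed intracellularly from a pBAD plasmid library in pooled LB shake-flask culture, induced with 0.3% L-arabinose, DNA abundance read by NGS, three biological replicates, DESeq2 with apeglm shrinkage.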

| Sequence | shrunken log2 fold change |
| --- | --- |
| RRIRPRPPRLPRPRPRPWNAPRP | -0.118 |
| RRIRKRPPRLPRPRPRPNHNPRP | -0.382 |
| RRIRVRPPRLPRPRPRPLKGPRP | -0.211 |
| RRIRVRPPRLPRPRPRPDSRPRP | 0.0857 |
| RRIRSRPPRLPRPRPRPFIMPRP | -1.09 |
| RRIRCRPPRLPRPRPRPRMTPRP | 0.296 |
| RRIRMRPPRLPRPRPRPLTSPRP | 0.0851 |
| RRIRWRPPRLPRPRPRPRRKPRP | 0.178 |
| RRIRIRPPRLPRPRPRPHKQPRP | -0.0164 |
| RRIRRRPPRLPRPRPRPNAEPRP | 0.0193 |
| RRIRTRPPRLPRPRPRPLNSPRP | -0.347 |
| RRIRQRPPRLPRPRPRPHPCPRP | -0.0985 |
| RRIRTRPPRLPRPRPRPSSQPRP | -0.153 |
| RRIRMRPPRLPRPRPRPGYMPRP | 0.0502 |
| RRIRPRPPRLPRPRPRPTNNPRP | -0.329 |
| RRIRWRPPRLPRPRPRPRDQPRP | -0.033 |
| RRIRRRPPRLPRPRPRPVCNPRP | 0.181 |
| RRIRQRPPRLPRPRPRPPTAPRP | 0.504 |
| RRIRTRPPRLPRPRPRPGLCPRP | -0.00367 |
| RRIRKRPPRLPRPRPRPMDYPRP | 0.0283 |
| RRIRFRPPRLPRPRPRPWNMPRP | -0.24 |
| RRIRGRPPRLPRPRPRPAFVPRP | 0.373 |

| Sequence | shrunken log2 fold change |
| --- | --- |
| RRIRIRPPRLPRPRPRPPQNPRP | -0.33 |
| RRIRVRPPRLPRPRPRPKGNPRP | 0.143 |
| RRIRFRPPRLPRPRPRPYHHPRP | -1.16 |
| RRIRSRPPRLPRPRPRPCVIPRP | -0.172 |
| RRIRNRPPRLPRPRPRPYVEPRP | -0.00677 |
| RRIRDRPPRLPRPRPRPFKPPRP | 0.00312 |
| RRIRCRPPRLPRPRPRPAKYPRP | -0.299 |
| RRIRIRPPRLPRPRPRPGCQPRP | -0.0196 |
| RRIRTRPPRLPRPRPRPNEAPRP | 0.172 |
| RRIRSRPPRLPRPRPRPMYFPRP | -0.229 |
| RRIRTRPPRLPRPRPRPVYKPRP | -0.188 |
| RRIRGRPPRLPRPRPRPHECPRP | 0.504 |
| RRIRSRPPRLPRPRPRPVVTPRP | 0.021 |
| RRIRNRPPRLPRPRPRPIDWPRP | 0.0533 |
| RRIRTRPPRLPRPRPRPTTVPRP | -0.271 |
| RRIRERPPRLPRPRPRPMMMPRP | -0.182 |
| RRIRCRPPRLPRPRPRPERDPRP | 0.325 |
| RRIRARPPRLPRPRPRPPCEPRP | 0.716 |
| RRIRRRPPRLPRPRPRPFFDPRP | 0.296 |
| RRIRHRPPRLPRPRPRPPTIPRP | 0.215 |
| RRIRPRPPRLPRPRPRPKLPPRP | 0.298 |
| RRIRSRPPRLPRPRPRPIIHPRP | -0.526 |

| Sequence | shrunken log2 fold change |
| --- | --- |
| RRIRYRPPRLPRPRPRPLYKPRP | -0.229 |
| RRIRGRPPRLPRPRPRPHYGPRP | -0.627 |
| RRIRWRPPRLPRPRPRPDAGPRP | 0.485 |
| RRIRCRPPRLPRPRPRPSMWPRP | -0.648 |
| RRIRHRPPRLPRPRPRPYSPPRP | -0.0769 |
| RRIRHRPPRLPRPRPRPIIDPRP | -0.0219 |
| RRIRYRPPRLPRPRPRPLIPPRP | -0.671 |
| RRIRERPPRLPRPRPRPEECPRP | -0.000921 |
| RRIRVRPPRLPRPRPRPRAMPRP | 0.213 |
| RRIRSRPPRLPRPRPRPWPGPRP | -0.139 |
| RRIRFRPPRLPRPRPRPVQEPRP | 0.0623 |
| RRIRRRPPRLPRPRPRPMWQPRP | 0.381 |
| RRIRARPPRLPRPRPRPYVRPRP | -0.377 |
| RRIRFRPPRLPRPRPRPMYDPRP | -0.244 |
| RRIRWRPPRLPRPRPRPTTHPRP | 0.163 |
| RRIRWRPPRLPRPRPRPQNRPRP | 0.0839 |
| RRIRQRPPRLPRPRPRPTKYPRP | -0.257 |
| RRIRTRPPRLPRPRPRPQNAPRP | -0.12 |
| RRIRYRPPRLPRPRPRPFYPPRP | -0.747 |
| RRIRVRPPRLPRPRPRPEIKPRP | -0.107 |
| RRIRERPPRLPRPRPRPSWCPRP | -0.0728 |
| RRIRGRPPRLPRPRPRPDAGPRP | 0.601 |

| Sequence | shrunken log2 fold change |
| --- | --- |
| RRIRWRPPRLPRPRPRPQMKPRP | -0.316 |
| RRIRPRPPRLPRPRPRPYMRPRP | -0.000384 |
| RRIRRRPPRLPRPRPRPECWPRP | 0.958 |
| RRIRYRPPRLPRPRPRPDMCPRP | -0.0185 |
| RRIRGRPPRLPRPRPRPNFYPRP | 0.22 |
| RRIRIRPPRLPRPRPRPWLMPRP | -0.202 |
| RRIRNRPPRLPRPRPRPAMHPRP | -0.273 |
| RRIRMRPPRLPRPRPRPWMCPRP | -0.01 |
| RRIRMRPPRLPRPRPRPFTYPRP | -0.0802 |
| RRIRWRPPRLPRPRPRPQGLPRP | 0.00602 |
| RRIRLRPPRLPRPRPRPRQLPRP | 0.153 |
| RRIRMRPPRLPRPRPRPLHIPRP | -0.0533 |
| RRIRYRPPRLPRPRPRPFRVPRP | -0.0371 |
| RRIRPRPPRLPRPRPRPKRVPRP | 0.0499 |
| RRIRNRPPRLPRPRPRPCISPRP | -0.802 |
| RRIRRRPPRLPRPRPRPTCLPRP | 0.099 |
| RRIRLRPPRLPRPRPRPPICPRP | -0.0611 |
| RRIRVRPPRLPRPRPRPNYTPRP | -0.533 |
| RRIRQRPPRLPRPRPRPFSSPRP | -0.0951 |
| RRIRPRPPRLPRPRPRPHTLPRP | -0.195 |
| RRIRFRPPRLPRPRPRPNYFPRP | -0.383 |
| RRIRVRPPRLPRPRPRPTLYPRP | -0.155 |

| Sequence | shrunken log2 fold change |
| --- | --- |
| RRIRSRPPRLPRPRPRPKVGPRP | 0.176 |
| RRIRLRPPRLPRPRPRPCCGPRP | -0.00366 |
| RRIRSRPPRLPRPRPRPLGDPRP | 0.0783 |
| RRIRTRPPRLPRPRPRPYTIPRP | -1.21 |
| RRIRTRPPRLPRPRPRPNDTPRP | -0.387 |
| RRIRARPPRLPRPRPRPRAYPRP | 0.178 |
| RRIRNRPPRLPRPRPRPIIAPRP | -0.127 |
| RRIRTRPPRLPRPRPRPEAPPRP | 0.139 |
| RRIRKRPPRLPRPRPRPMANPRP | 0.0288 |
| RRIRLRPPRLPRPRPRPGSYPRP | 0.186 |
| RRIRERPPRLPRPRPRPNFFPRP | -0.0705 |
| RRIRGRPPRLPRPRPRPGVIPRP | 0.375 |
| RRIRPRPPRLPRPRPRPVDNPRP | 0.0523 |
| RRIRIRPPRLPRPRPRPHNNPRP | -0.313 |
| RRIRIRPPRLPRPRPRPNLTPRP | 0.0979 |
| RRIRYRPPRLPRPRPRPCTPPRP | -1.14 |
| RRIRKRPPRLPRPRPRPADEPRP | 0.19 |
| RRIRIRPPRLPRPRPRPAVSPRP | -0.0873 |
| RRIRKRPPRLPRPRPRPIDRPRP | -0.0769 |
| RRIRQRPPRLPRPRPRPSTFPRP | -0.176 |
| RRIRKRPPRLPRPRPRPTDFPRP | 0.118 |
